{"source": "paper PMC3472557", "origin": "cited, not measured here", "key": {"ASPP2 (Homo sapiens) [1]": {"molecular_target": "ASPP2 (Homo sapiens) (UniProt Q13625)", "sequence (Q13625 whole entry)": "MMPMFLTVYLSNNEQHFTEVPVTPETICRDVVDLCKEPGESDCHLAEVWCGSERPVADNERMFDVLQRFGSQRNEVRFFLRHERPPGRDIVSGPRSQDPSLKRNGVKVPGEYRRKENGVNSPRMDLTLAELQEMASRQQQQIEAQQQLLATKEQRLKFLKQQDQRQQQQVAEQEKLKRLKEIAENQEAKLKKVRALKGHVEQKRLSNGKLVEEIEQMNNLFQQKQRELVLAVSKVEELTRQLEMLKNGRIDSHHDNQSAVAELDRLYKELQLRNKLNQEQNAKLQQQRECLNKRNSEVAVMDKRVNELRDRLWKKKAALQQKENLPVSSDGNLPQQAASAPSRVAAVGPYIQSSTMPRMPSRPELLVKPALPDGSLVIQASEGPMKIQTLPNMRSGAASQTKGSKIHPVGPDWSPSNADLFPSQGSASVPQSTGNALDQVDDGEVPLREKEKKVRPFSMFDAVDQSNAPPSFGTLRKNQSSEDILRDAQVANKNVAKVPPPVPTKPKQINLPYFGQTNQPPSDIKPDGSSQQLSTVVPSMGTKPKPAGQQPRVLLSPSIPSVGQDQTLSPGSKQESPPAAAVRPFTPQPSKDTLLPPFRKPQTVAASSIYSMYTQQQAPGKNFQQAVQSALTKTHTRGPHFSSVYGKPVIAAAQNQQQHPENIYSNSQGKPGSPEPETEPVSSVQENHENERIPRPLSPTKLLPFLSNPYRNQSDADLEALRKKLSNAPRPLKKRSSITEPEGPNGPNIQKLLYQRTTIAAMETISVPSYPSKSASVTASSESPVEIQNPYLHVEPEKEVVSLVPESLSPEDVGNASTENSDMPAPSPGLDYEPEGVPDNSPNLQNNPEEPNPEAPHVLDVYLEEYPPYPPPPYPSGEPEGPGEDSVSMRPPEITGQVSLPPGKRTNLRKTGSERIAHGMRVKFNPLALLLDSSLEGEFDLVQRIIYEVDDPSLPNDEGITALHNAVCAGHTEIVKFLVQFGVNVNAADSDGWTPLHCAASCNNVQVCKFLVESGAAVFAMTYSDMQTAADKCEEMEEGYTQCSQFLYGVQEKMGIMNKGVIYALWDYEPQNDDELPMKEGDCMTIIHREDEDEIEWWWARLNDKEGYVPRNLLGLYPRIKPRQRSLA", "experiment": "BIAcore SPR"}, "ASPP2 (Homo sapiens) [2]": {"molecular_target": "ASPP2 (Homo sapiens) (UniProt Q13625)", "experiment": "solid-phase ELISA"}}, "note": "pKd: −log10 of the molar value.", "data": [{"substance": "p53 (from UniProt P04637)", "values": [{"measurement": "pKd", "setting": "ASPP2 (Homo sapiens) [1]", "result": 7.52}, {"measurement": "pKd", "setting": "ASPP2 (Homo sapiens) [2]", "result": 7.64}]}]}
